Measurements from the PETadex activity labels (doi:10.1021/acs.est.4c01495).

How the values were obtained:
p-NP-C4 = settings: 35 °C
gfPET = experiment: Proxy for plastic degradation [Released monomer concentration (HPLC/LC-MS) (TPA+MHET)]; settings: pH 8

B1: unnamed (protein)
chain: MNFPRASRLMQAAVLGGLMAVSAAATAQTNPYARGPNPTAASLEASAGPFTVRSFTVSRPSGYGAGTVYYPTNAGGTVGAIAIVPGYTARQSSIKWWGPRLASHGFVVITIDTNSTLDQPSSRSSQQMAALRQVASLNGTSSSPIYGKVDTARMGVMGWSMGGGGSLISAANNPSLKAAAPQAPWDSSTNFSSVTVPTLIFACENDSIAPVNSSALPIYDSMSRNAKQFLEINGGSHSCANSGNSNQALIGKKGVAWMKRFMDNDTRYSTFACENPNSTRVSDFRTANCS
p-NP-C4; part of the chain shown
  Km: 240 µM
  kcat: 15.1 s⁻¹
  kcat/Km: 62900 s⁻¹ M⁻¹
gfPET; 35 °C, 1 h, part of the chain shown
  Proxy for plastic degradation: 17 µM
gfPET; 35 °C, 3 h, part of the chain shown
  Proxy for plastic degradation: 38 µM
gfPET; 35 °C, 5 h, part of the chain shown
  Proxy for plastic degradation: 45 µM
gfPET; 35 °C, 7 h, part of the chain shown
  Proxy for plastic degradation: 55 µM
gfPET; 35 °C, 10 h, part of the chain shown
  Proxy for plastic degradation: 77 µM
gfPET; 50 °C, 1 h, part of the chain shown
  Proxy for plastic degradation: 10 µM
gfPET; 50 °C, 3 h, part of the chain shown
  Proxy for plastic degradation: 25 µM
gfPET; 50 °C, 5 h, part of the chain shown
  Proxy for plastic degradation: 50 µM
gfPET; 50 °C, 7 h, part of the chain shown
  Proxy for plastic degradation: 70 µM
gfPET; 50 °C, 10 h, part of the chain shown
  Proxy for plastic degradation: 209 µM

B2: unnamed (protein)
chain: MDGVLWRVRTAALMAALLALAAWALVWASPSVEAQSNPYQRGPNPTRSALTADGPFSVATYTVSRLSVSGFGGGVIYYPTGTSLTFGGIAMSPGYTADASSLAWLGRRLASHGFVVLVINTNSRFDYPDSRASQLSAALNYLRTSSPSAVRARLDANRLAVAGHSMGGGGTLRIAEQNPSLKAAVPLTPWHTDKTFNTSVPVLIVGAEADTVAPVSQHAIPFYQNLPSTTPKVYVELDNASHFAPNSNNAAISVYTISWMKLWVDNDTRYRQFLCNVNDPALSDFRTNNRHCQ
p-NP-C4
  Km: 300 µM
  kcat: 21.6 s⁻¹
  kcat/Km: 71900 s⁻¹ M⁻¹
gfPET; 35 °C, 1 h
  Proxy for plastic degradation: 5 µM
gfPET; 35 °C, 3 h
  Proxy for plastic degradation: 14 µM
gfPET; 35 °C, 5 h
  Proxy for plastic degradation: 39 µM
gfPET; 35 °C, 7 h
  Proxy for plastic degradation: 95 µM
gfPET; 35 °C, 10 h
  Proxy for plastic degradation: 182 µM
gfPET; 50 °C, 1 h
  Proxy for plastic degradation: 480 µM
gfPET; 50 °C, 3 h
  Proxy for plastic degradation: 1470 µM
gfPET; 50 °C, 5 h
  Proxy for plastic degradation: 2380 µM
gfPET; 50 °C, 7 h
  Proxy for plastic degradation: 3250 µM
gfPET; 50 °C, 10 h
  Proxy for plastic degradation: 4130 µM
